Measured values reported in US20230414619.

Molecular target: Flag-tagged METTL3, Q86U44
Sequence (Q86U44 whole entry): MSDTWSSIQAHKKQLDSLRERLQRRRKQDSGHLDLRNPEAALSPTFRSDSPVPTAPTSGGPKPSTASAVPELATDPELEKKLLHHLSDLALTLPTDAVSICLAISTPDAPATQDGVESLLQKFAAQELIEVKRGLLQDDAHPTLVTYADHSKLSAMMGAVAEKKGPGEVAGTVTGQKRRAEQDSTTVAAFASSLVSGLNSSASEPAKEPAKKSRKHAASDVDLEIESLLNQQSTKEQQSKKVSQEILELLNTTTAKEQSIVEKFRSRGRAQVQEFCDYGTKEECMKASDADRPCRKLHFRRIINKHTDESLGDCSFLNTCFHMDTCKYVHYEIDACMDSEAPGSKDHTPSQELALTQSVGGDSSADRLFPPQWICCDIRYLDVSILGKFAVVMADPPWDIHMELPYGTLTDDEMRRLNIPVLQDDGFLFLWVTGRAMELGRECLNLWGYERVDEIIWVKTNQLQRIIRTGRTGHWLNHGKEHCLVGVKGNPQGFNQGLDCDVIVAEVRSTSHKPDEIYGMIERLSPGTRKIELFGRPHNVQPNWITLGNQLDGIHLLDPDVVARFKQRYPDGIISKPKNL

B1: HA-tagged G9a (protein)
chain: MAAAAGAAAAAAAEGEAPAEMGALLLEKETRGATERVHGSLGDTPRSEETLPKATPDSLEPAGPSSPASVTVTVGDEGADTPVGATPLIGDESENLEGDGDLRGGRILLGHATKSFPSSPSKGGSCPSRAKMSMTGAGKSPPSVQSLAMRLLSMPGAQGAAAAGSEPPPATTSPEGQPKVHRARKTMSKPGNGQPPVPEKRPPEIQHFRMSDDVHSLGKVTSDLAKRRKLNSGGGLSEELGSARRSGEVTLTKGDPGSLEEWETVVGDDFSLYYDSYSVDERVDSDSKSEVEALTEQLSEEEEEEEEEEEEEEEEEEEEEEEEDEESGNQSDRSGSSGRRKAKKKWRKDSPWVKPSRKRRKREPPRAKEPRGVNGVGSSGPSEYMEVPLGSLELPSEGTLSPNHAGVSNDTSSLETERGFEELPLCSCRMEAPKIDRISERAGHKCMATESVDGELSGCNAAILKRETMRPSSRVALMVLCETHRARMVKHHCCPGCGYFCTAGTFLECHPDFRVAHRFHKACVSQLNGMVFCPHCGEDASEAQEVTIPRGDGVTPPAGTAAPAPPPLSQDVPGRADTSQPSARMRGHGEPRRPPCDPLADTIDSSGPSLTLPNGGCLSAVGLPLGPGREALEKALVIQESERRKKLRFHPRQLYLSVKQGELQKVILMLLDNLDPNFQSDQQSKRTPLHAAAQKGSVEICHVLLQAGANINAVDKQQRTPLMEAVVNNHLEVARYMVQRGGCVYSKEEDGSTCLHHAAKIGNLEMVSLLLSTGQVDVNAQDSGGWTPIIWAAEHKHIEVIRMLLTRGADVTLTDNEENICLHWASFTGSAAIAEVLLNARCDLHAVNYHGDTPLHIAARESYHDCVLLFLSRGANPELRNKEGDTAWDLTPERSDVWFALQLNRKLRLGVGNRAIRTEKIICRDVARGYENVPIPCVNGVDGEPCPEDYKYISENCETSTMNIDRNITHLQHCTCVDDCSSSNCLCGQLSIRCWYDKDGRLLQEFNKIEPPLIFECNQACSCWRNCKNRVVQSGIKVRLQLYRTAKMGWGVRALQTIPQGTFICEYVGELISDAEADVREDDSYLFDLDNKDGEVYCIDARYYGNISRFINHLCDPNIIPVRVFMLHQDLRFPRIAFFSSRDIRTGEELGFDYGDRFWDIKSKYFTCQCGSEKCKHSAEAIALEQSRLARLDPHPELLPELGSLPPVNT
- LC-MS/MS of tryptic digests of Flag-METTL3: mono- or di-methyl-lysine (Kme) sites: four mono- or di-methyl-lysine (Kme) sites in the C-terminus of METTL3
- lysine methylation of immunoprecipitated Flag-METTL3, immunoblotting with an anti-mono- or di-methylysine antibody: METTL3 was methylated
